This note sets out measurements from the supplement of paper PMC9170038.

The test system of the data set is MS2 coat protein. Kind of data set: apparent KD of MS2 coat protein; designed switch direction (-1 OFF switch, 1 ON switch): -1; higher = weaker reporter binding. A digest of the protocol:
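Stalled E. coli RNA polymerase transcribed designed RNA switches on Illumina chips, which were then titrated with SNAP-549-labelled MS2 coat protein, doubling from 0.7 or 1.5 nM to 3 µM. Steps lasted from 0.8–1.5 h at the lowest concentration to 10–20 min at the highest. The apparent KD is each design's median over clusters of curve-fitted normalised fluorescence.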

Setting [1] is: input ligand: microRNA oligo, concentration not stated.
The mark [2] stands for this setting: Eterna round: R95, input ligand: FMN 200 uM.
Where [3] appears, read: Eterna round: R95, input ligand: microRNA oligo, concentration not stated.
Where [4] appears, read: Eterna round: R95, input ligand: none.

With “AGAUAGUGCUGAGGAUAUCUUAAUAGAAAGAAUAGAGAAGGCGGACAUGAGGAUCACCCAUGUGAGGUCUUGAGACUACAUGGU [Prohibition 36 - Jieux - Exclusion NG 1] (Eterna round: R96, puzzle: Exclusion NG 1)”, the “apparent KD of MS2 coat protein” value is, setting by setting: (input ligand: FMN 200 uM) 366 nM; under setting [1], 71.6 nM; (input ligand: none) 135 nM.

Regarding “AUAAUUAAUCGAGGAUAUCAGCACGAUUAGUGCUGAGAAGGCGACAUGAGGAUCACCCAUGUGAUCAAUUAAUAUUAAUAUUAU [ENG1/11-C1] (Eterna round: R96, puzzle: Exclusion NG 1)”, the “apparent KD of MS2 coat protein” value was found to be 1630 nM (input ligand: FMN 200 uM), 626 nM under setting [1] and 808 nM (input ligand: none).

With “AAAAUAAAGAUGCCUUUAAACAUGAGGAUCACCCAUGUGAGUAAGGAUAUCGGAACCAAUCGCGACGAGAAGGUACUCGCGUGU [Relela] (Eterna round: R96, puzzle: Exclusion NG 3)”, the “apparent KD of MS2 coat protein” value runs as follows: (input ligand: FMN 200 uM) 12.1 nM; under setting [1], 11.1 nM; (input ligand: none) 15.7 nM.

Regarding “ACGUGAUAUCUGUCGGUGGACAUGAGGAUCACCCAUGUAAGCUUUUUGCUUGUCUUAUAACCCGGUGACAGACCUUC [Inxeer] (puzzle: Sensor v3, turn-off variant 1)”, the “apparent KD of MS2 coat protein” value by setting is: under setting [2], 23.1 nM; under setting [3], 540 nM; under setting [4], 26.5 nM.

As for “CUCGAGUUAGGAUAUGGCGGCGACUGUGUUCGCAGAUCGCACCAGAAGGAACAUGAGGAUCACCCAUGUGACGG [Eternabot (L1) Solution 42] (Eterna round: R97, puzzle: Exclusion 4)”, the “apparent KD of MS2 coat protein” value worked out at 348 nM (input ligand: FMN 200 uM) and 89.7 nM (input ligand: none).

“CAAUAAAAGCGAGGAUAUCCGUAUAAAGAUACAGGAGAAGGUGCGGGUACUCCUCACAUGAGGAUCACCCAUGUAAGAAAUAAA [Erxeraso] (Eterna round: R96, puzzle: Exclusion NG 1)”: the “apparent KD of MS2 coat protein” value by setting is: (input ligand: FMN 200 uM) 67.4 nM; under setting [1], 33.7 nM; (input ligand: none) 57.1 nM.

As for “AAGGUGUUAGGAUAUCGGAGGUUGAGGCAGACGGGAAUUUUCGAGAAGGAACAUGAGGAUCACCCAUGUAGUAG [JR_Exclu4_Sub038] (puzzle: Exclusion 4)”, the “apparent KD of MS2 coat protein” value by setting is: under setting [2], 19.1 nM; under setting [3], 22.7 nM; under setting [4], 21.3 nM.

Consider “AAUAAGUAUGUGAGGAUAUUGAGGAGGAGGAGGGACAAGAAGGCACAUGAGGAUCACCCAUGUAGGAAAGGACG [JR_BMEx4_Sub002] (Eterna round: R97, puzzle: Brourd's mod of Exclusion 4)”, for which the “apparent KD of MS2 coat protein” value by setting is: (input ligand: FMN 200 uM) 46.9 nM; (input ligand: none) 28 nM.

“ACUGGAGCAGGAUAUAUAUGACGUGCUUCGGCACGAAGGUCACAUGAGGAUCACCCAUGUAGAAGGGCUCCAGU [E2/9-D1] (Eterna round: R97, puzzle: Exclusion 2)”: the “apparent KD of MS2 coat protein” value by setting is: (input ligand: FMN 200 uM) 225 nM; (input ligand: none) 46.7 nM.

In the case of “UACAUGAGGAUCACCCAUGUUUUGUCGUGUAUGGUACCCAUCUAGGAUAUCGUGUUAUUUAACCACGAGAAGGAGAGUAUCAAU [MOD4 Solution 21 by JMF] (Eterna round: R96, puzzle: Exclusion NG 3)”, the “apparent KD of MS2 coat protein” value (input ligand: FMN 200 uM) stood at 22.4 nM, the “apparent KD of MS2 coat protein” value under setting [1] turned out to be 13 nM and the “apparent KD of MS2 coat protein” value (input ligand: none) is 21.8 nM.

In the case of “CCUGCGUGAGGAUAUACAUGAGGAUCACCCAUGUCACAAUUAACACACUCCGCCUCACGUAGAAGGCACGCAUA [Tienarra] (Eterna round: R97, puzzle: Exclusion 3)”, the “apparent KD of MS2 coat protein” value was 23.1 nM (input ligand: FMN 200 uM) and 13.6 nM (input ligand: none).

Take “CUGAUGUGAGGAUAUGUGAUCUGCCUUCUAUGUAGAUGAUCACAGAAGGCACAUGAGGAUCACCCAUGUAGAUC [Ex4 - 3 - 26] (Eterna round: R96, puzzle: Exclusion 4)”: the “apparent KD of MS2 coat protein” value stood at 129 nM (input ligand: FMN 200 uM), 57.3 nM under setting [1] and 99.4 nM (input ligand: none).

In the case of “GCAUGGAGACAGGAUAUCCGCGCGAACAAAAUAGGAGAAGGGUCUACAUGAGGAUCACCCAUGUGACGGUAUCC [Aedenqu] (puzzle: Exclusion 6)”, the “apparent KD of MS2 coat protein” value by setting is: under setting [2], 62.2 nM; under setting [3], 21.7 nM; under setting [4], 27.2 nM.

“UUGUGCACGCUGCGGUCCUACAUGAGGAUCACCCAUGUGGUCUGGUGGCGUGGGUCACCGGACUUGGCUCGUCUUGA [salish99_S_TOV1_R5_061] (Eterna round: R97, puzzle: Sensor, turn-off variant 1)”: the “apparent KD of MS2 coat protein” value (input ligand: FMN 200 uM) stood at 52.7 nM and the “apparent KD of MS2 coat protein” value (input ligand: none) is 57.8 nM.

Consider “AAUAAUGAGUAGGAUAUCACUAGCGAUAGCUAGUGAGAAGGGCUCACAUGAGGAUCACCCAUGUGUUCCAAUAA [Mod4 Ex6/6-A4 by Brourd] (Eterna round: R97, puzzle: Exclusion 6)”, for which the “apparent KD of MS2 coat protein” value was determined as 88.1 nM (input ligand: FMN 200 uM) and 31.2 nM (input ligand: none).

Turning to “UACAUGAGGAUCACCCAUGUUUUGUCGUGUUUGGUACCCGUUUAGGAUAUCGUGUUAUUGGACCGCGAGAAGGAGAGUAUCUUU [Excl-NG3-LRO07] (Eterna round: R96, puzzle: Exclusion NG 3)”, the “apparent KD of MS2 coat protein” value (input ligand: FMN 200 uM) came out at 31.8 nM, the “apparent KD of MS2 coat protein” value under setting [1] was 25.3 nM and the “apparent KD of MS2 coat protein” value (input ligand: none) was 33.3 nM.

For “UCUCGUUGGCAAGGAUAUCCUACAUUGUUCUGGCCCGGGCAUGCUACAUGAGGAUCACCCAUGUGGGAGAAGGUGCGCCACUGC [Design 25] (Eterna round: R96, puzzle: Exclusion NG 2)”, the “apparent KD of MS2 coat protein” value is, setting by setting: (input ligand: FMN 200 uM) 95.5 nM; under setting [1], 67.6 nM; (input ligand: none) 108 nM.

Take “AAAAAAAGACAAGAGGAGAAUCGUCUUAAAAAUCCUCAGACAUGAGGAUCACCCAUGUAAAAUGAUCGAAAGAUCAA [Mat - Sensor v2 - ver2 - JL mod - D42] (Eterna round: R96, puzzle: Sensor v2, turn-off variant 2)”: the “apparent KD of MS2 coat protein” value came out at 39.7 nM (input ligand: FMN 200 uM), 40 nM under setting [1] and 40.6 nM (input ligand: none).

Take “GAUCCACAUGAGGAUCACCCAUGUUAGGAUAUGACAACGACUCGCACUACGUUGUUGCUCAGAAGGAGCACCCA [Eternabot (Original) Solution 10] (Eterna round: R97, puzzle: Exclusion 1)”: the “apparent KD of MS2 coat protein” value runs as follows: (input ligand: FMN 200 uM) 19.1 nM; (input ligand: none) 18.3 nM.

“AGUGCGUAUGUGAGGAUAUGCUGGUCCUUGGAUCAGCAGAAGGCACAUGAGGAUCACCCAUGUGGUGUCGUACG [salish99_Bmod_Ex4_004] (puzzle: Brourd's mod of Exclusion 4)”: the “apparent KD of MS2 coat protein” value reads like this: under setting [2], 245 nM; under setting [3], 51.8 nM; under setting [4], 60 nM.

As to “CCGCUCCGUGUAGGAUAUCGGUGUACCCUGCGCCGAGAAGGACAUGAGGAUCACCCAUGUAUGUUAUUAUCACGCGUGGCGCAC [Design 73] (Eterna round: R96, puzzle: Exclusion NG 1)”, the “apparent KD of MS2 coat protein” value turned out to be 37.7 nM (input ligand: FMN 200 uM), 18.9 nM under setting [1] and 37.7 nM (input ligand: none).

Regarding “ACCAGUGGAGGAUAUACAUGAGGAUCACCCAUGUGUUGAAUAGGUGGAGAACCACAAAGUAGAAGGCCACUGGA [jl-ex3-4.79 jandersonlee automod] (Eterna round: R97, puzzle: Exclusion 3)”, the “apparent KD of MS2 coat protein” value turned out to be 1000 nM (input ligand: FMN 200 uM) and 76.6 nM (input ligand: none).

As to “AGCGAAGAGACAGGAUAUGAGAAUAGAUAGAGCUCAGAAGGGUCACAUGAGGAUCACCCAUGUAAAGUCUUGAGGCUGCGUGGU [Prohibition 10 - Jieux - Exclusion NG 1] (Eterna round: R96, puzzle: Exclusion NG 1)”, the “apparent KD of MS2 coat protein” value runs as follows: (input ligand: FMN 200 uM) 123 nM; under setting [1], 41.1 nM; (input ligand: none) 61.7 nM.

Consider “GGCACACAUGAGGAUCACCCAUGUGAGGAUAUGGUGCGAUCGUCGAUAGACGAUAGCACUAGAAGGCACAUGCC [Mat - Exclusion 1 - Eli Mod - D6] (Eterna round: R97, puzzle: Exclusion 1)”, for which the “apparent KD of MS2 coat protein” value was determined as 25.5 nM (input ligand: FMN 200 uM) and 17.8 nM (input ligand: none).

Take “CACGUGAGAGGAUAUACAUGAGGAUCACCCAUGUAUACAGCAGGGUAUGAAGACUUGGGUAGAAGGCUCGCGUG [Eternabot (L2) Solution 39] (Eterna round: R97, puzzle: Exclusion 3)”: the “apparent KD of MS2 coat protein” value runs as follows: (input ligand: FMN 200 uM) 173 nM; (input ligand: none) 270 nM.

Regarding “GCACAGGCAGGAUAUACAUGAGGAUCACCCAUGUGAUCCCUUAGGUACAAAAGUACAAGUAGAAGGGCCUGUGC [Omei Ex3 Model Bachelor's Dilema v45] (Eterna round: R97, puzzle: Exclusion 3)”, the “apparent KD of MS2 coat protein” value is, setting by setting: (input ligand: FMN 200 uM) 146 nM; (input ligand: none) 1460 nM.

Take “CCUAGUGUCGGAGGAUAUCCUACACAAACCUUAGGAGAAGGCCGACAUGAGGAUCACCCAUGUAAAACCUAAACCUAAAAUCAA [Raesusbi] (Eterna round: R96, puzzle: Exclusion NG 1)”: the “apparent KD of MS2 coat protein” value reads like this: (input ligand: FMN 200 uM) 48.9 nM; under setting [1], 12.8 nM; (input ligand: none) 15.2 nM.

With “CAUACACAUGAGGAUCACCCAUGUGAGGAUAUGAAUACGUUGUCCGUAGGCGACGUGAUCAGAAGGCGCUUGGU [Mat - Mod of JL D100] (puzzle: Exclusion 1)”, the “apparent KD of MS2 coat protein” value under setting [3] worked out at 44 nM.

Turning to “GGUCAGCUAGGAUAUACAUGAGGAUCACCCAUGUACUGACCCAUGCGGGAGCCUGCAUGUAGAAGGAGCAAUAU [Onzatiqula] (Eterna round: R97, puzzle: Exclusion 3)”, the “apparent KD of MS2 coat protein” value reads like this: (input ligand: FMN 200 uM) 37 nM; (input ligand: none) 55.3 nM.
